From US20250027068
Residue numbers refer to the chain shown, from its start.

B1: PRT-692 (protein)
chain: MQITSVWTKGVTPPTPEQFRYNNEDVIHAPYLPNQGWYDITKTFNGGDNLLCGAATAGNMLHWWFDQNKTEIEAYLSKYPEKQKIIFNNQELFDLRAAINSKDSQTNSQLFNYFRDKAFPNLSARQLGVMPDLVLDMFINGYYLNVFKTQSTDVNRPYQDPDKRGGIFDDVFKEGDQTTLLTARHDLKNGTLNDISTLIKQELQSGKALALSHTYANVSISHVINLWGADFNAEGNLEAIYVTDSDANQSIGMKKYKVGVNAHGKVAISAKKIEGENIGAQVLGLFTLSSGKEIWQKLSLEHHHHHH
B2: PRT-646 (protein)
chain: MQITSVWTKGVTPLTPEQFRYNNEDVIHAPYLAHQGWYDITKAFDGKDNLLCGAATAGNMLHWWFDQNKTEIEAYLSKHPEKQKIIFNNQELFDLKAAIDTKDSQTNSQLFNYFRDKAFPNLSARQLGVMPDLVLDMFINGYYLNVFKTQSTDVNRPYQDKDKRGGIFDAVFTRGDQTTLLTETTDLYGKGLNDISTIIKQELTEGRALALSHTYANVSISHVINLWGADFNAEGNLEAIYVTDSDANASIGMKKYFVGINAHGHVAISAKKIEGENIGAQVLGLFTLSSGKDIWQKLSLEHHHHHH
B3: PRT-661 (protein)
chain: B2 chain with H34N, A43T, A97K, E183A, T184R, T185H, Y188K, G189N, A247S, H263A
B4: PRT-658 (protein)
chain: B2 chain with K96R, A97K, D100N, Q109A, E183A, T184R, T185H, Y188K, G189N
B5: PRT-621 (protein)
chain: B2 chain with E183A, T184R, T185H, Y188K, G189N, G191T, D194E, T197Q, T204S, E205S
B6: PRT-657 (protein)
chain: B2 chain with K96R, A97E, D100N, N107D, Q109K, E183A, T184R, T185H, Y188K, G189N
B7: PRT-644 (protein)
chain: B2 chain with E183A, T184R, T185H, Y188K, G189N, F257Y, I260K, H263S, G275D
B8: PRT-650 (protein)
chain: B2 chain with E91K, F147T, D160T, K163P, E183A, T184R, T185H, Y188K, G189N
B9: PRT-625 (protein)
chain: B2 chain with Y158E, Q159D, A170H, T178S, E183A, T184R, T185H, Y188K, G189N
B10: PRT-681 (protein)
chain: B2 chain with H79Y, K96R, D100N, E183A, T184R, T185H, Y188K, G189N, F257Y, D293E
B11: PRT-633 (protein)
chain: B2 chain with R20T, Y21N, L32K, H34N, E183A, T184R, T185H, Y188K, G189N, R207K
B12: PRT-647 (protein)
chain: B2 chain with E183N, T184R, T185Y, G189D
B13: PRT-609 (protein)
chain: MQITSVWTKGVTPLTPEQFRYNNEDVIHAPYLAHQGWYDITKAFDRGDNLLCGAATAGNMLHWWFDQNKTEIEAYLSKHPEKQKIIFNNQELFDLKAAIDTKDSQTNSQLFNYFRDKAFPNLSARQGGVMPDLVLDMFINGYYLNVFKTQSTDVNRPYQDKDKRGGIFDAVFTRGDQTTLLTARHDLKNKGLNDISTIIKQELTEGRALALSHTYANVSISHVINLWGADFNAEGNLEAIYVTDSDADEKIGMKKYFVGINAHGHVAISAKKIEGENIGAQVLGLFTLSSGKDIWQKLSLEHHHHHH
B14: PRT-642 (protein)
chain: B13 chain with A43T, D45N
B15: PRT-637 (protein)
chain: B13 chain with R46G, N49G, G127K, D248G, E249N, K250G
B16: PRT-696 (protein)
chain: MTITSVWTKGVTPPTPEDFRYNNEDVLHAPYVPNQGWYDITKTFDGGDNLLCGAATAGNMLHWWFDQNKEEIERYLKKYPEKQKIIFNNQELFDVRAAINSKDSQTNSKLFNYFRDKAFPNLSARQLGVMPDLVLDMFINGYYLNLGKTQSTDVNRPYQDPDKRGGIFDDVFKEGDQTTLLTARHDLKNGGLNEISDLIKQELQSGKALALSHTYANVRINHVINLWGADFDAEGNLIAIYVTDSDANQSIGMKKYKVGVNANGKVAISAKKIEGDNIGAQVLGLFTLSTGQEIWQKLSLEHHHHHH
B17: PRT-549 (protein)
chain: MANQEIRYSEDTPSHITSVWTKGVTPPTQFIQNEDVLHAPYIANQGWYDITKTFNGKDDLLCGAATAGNMLHWWFDQNKEQIEAYLKKYPEKQKINFNGEQMFDVKEAIDTKDSQTDSALFNYFKDKAFPYLSTKHLGVFPDHVIDMFINGYRLSLTNHGPTPVKNQTKDPRGGIFDAVFTRGDQSKLLTARHDFKEKTLKEISQLIKQELTEGKALGLSHTYANVRINHVINLWGADFNAEGNLEAIYVTDSDSNASIGMKKYYVGVNAAGKVAISAKEIEGDNIGAQVLGLFTLSTGQDIWQQTNLEHHHHHH
B18: PRT-623 (protein)
chain: MQITTVWTKGVTPLTPEQFRYNNEDVIHAPYLAHQGWYDITKAFDGKDNLLCGAATAGNMLHWWFDQNKTEIEAYLSKHPEKQKIIFNNQELFDLKAAIDTKDSQTNSQLFNYFRDKAFPNLSARQLGVMPDLVLDMFINGYYLNVFKTQSTDVNRPYQDKDKRGGIFDAVFTRGDQTTLLTARHDLKNGTLNEISQIIKQELQSGRALALSHTYANVSISHVINLWGADFNAEGNLIAIYVTDSDANASIGMKKYFVGINAHGHVAISAKKIEGENIGAQVLGLFTLSSGKDIWQKLSLEHHHHHH
B19: PRT-686 (protein)
chain: MQITSVWTKGVTPLTPEQFTYNNEDVIHAPYIANQGWYDITKTFNGKDNLLCGAATAGNMLHWWFDQNKTEIENYLKKHPEKQKIIFNNQELFDLRKAINTKDSQTNSALFNYFRDKAFPNLSARQLGVMPDLVLDMFINGYYLNVFKTQSTDVNRPYQTKDKRGGIFDHVFTRGDQSTLLTARHDLKNKTLNEISDIIKQELTEGKALALSHTYANVSISHVINLWGADFNAEGNLEAIYVTDSDANASIGMKKYFVGVNSHGKVAISAKKIEDENIGAQVLGLFTLSSGQDIWEQLSLEHHHHHH

Target: pooled human IgG (human IgG1, 2, 3 and 4)

Protein	Enzyme Activity Endpoint Assay (purified): Fab′2 [ng/µL]	Enzyme Activity Endpoint Assay (purified): Fc [ng/µL]	Enzyme Activity Endpoint Assay (purified): IgG [ng/µL]	Enzyme Activity Endpoint Assay (purified): scIgG [ng/µL]
B1	442	44	429	38
B2	582	435	39	635
B3	187	121	0	70
B4	822	473	0	317
B5	976	514	0	0
B6	430	250	0	0
B7	882	518	0	355
B8	522	452	130	600
B9	451	405	78	531
B10	915	492	0	0
B11	749	429	0	0
B12	777	465	0	330
B13	460	216	702	726
B14	175	260	360	760
B15	278	188	464	602
B16	58	0	1020	19
B17	725	491	0	279
B18	433	260	0	157
B19	608	355	0	252
